Laboratory results as given in PMC2018632 (Nucleic Acids Research, 2007).

Target: T1, Escherichia coli uracil-DNA glycosylase (Escherichia coli, UniProt P12295 1-229)
T1 sequence: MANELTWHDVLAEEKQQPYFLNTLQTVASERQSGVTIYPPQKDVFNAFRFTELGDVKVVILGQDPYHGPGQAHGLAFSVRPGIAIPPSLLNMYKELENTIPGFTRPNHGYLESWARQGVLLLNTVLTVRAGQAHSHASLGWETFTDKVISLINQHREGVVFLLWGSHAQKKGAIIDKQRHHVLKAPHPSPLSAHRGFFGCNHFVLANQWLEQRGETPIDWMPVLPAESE
Test: native gel or EMSA

B1: Ugi from the Bacillus subtilis phage PBS2 (natural protein)
chain: MTNLSDIIEKETGKQLVIQESILMLPEEVEEVIGNKPESDILVHTAYDESTDENVMLLTSDAPEYKPWALVIQDSNGENKIKML
binding result: binds
